Patent publication US20250034271A1 (EUCURE BEIJING BIOPHARMA, published 2025)
Positions count from the first letter of the chain named.

B1: 7F10-H1K4-IgG4 (antibody, V domains shown)
VH: EVQLVESGGGLVQPGGSLRLSCATSGFTFSDYYMYWVRQAPGKRLEWVAYISYGGDSTFYPDTVRGRFTISRDNAKNSLYLQMNSLRAEDTAVYYCARPAPSAHSYYLDYWGQGTLLTVSS
VL: DIQMTQSTSSLSASVGDRVTITCRASQDISNYLNWYQQKPDGTVKLLIYYTSRLHSGLPSRFSGSGSGTDYTLTISSLQQEDIATYYCQQGKTLPFTFASGTKLEIK
notes: Humanized
B2: 7F10-H3K4-IgG4 (antibody, V domains shown)
VH: B1 VH with Q3K, G42E, S78A, N84S, S85R, R87K, L116T
VL: B1 VL
notes: Humanized
B3: 7F10-H2K1-IgG4 (antibody, V domains shown)
VH: B1 VH with N84S, R87K
VL: B1 VL with T8P, D41G, T43A, Y71F, L73F, Q80P
notes: Humanized
B4: 7F10-H3K2-IgG4 (antibody, V domains shown)
VH: B1 VH with Q3K, G42E, S78A, N84S, S85R, R87K, L116T
VL: B1 VL with T8P, D41G, T43A, L73F, Q80P
notes: Humanized
B5: 7F10-H3K1-IgG4 (antibody, V domains shown)
VH: B1 VH with Q3K, G42E, S78A, N84S, S85R, R87K, L116T
VL: B1 VL with T8P, D41G, T43A, Y71F, L73F, Q80P
notes: Humanized
B6: 7F10-H2K2-IgG4 (antibody, V domains shown)
VH: B1 VH with N84S, R87K
VL: B1 VL with T8P, D41G, T43A, L73F, Q80P
notes: Humanized
B7: 7F10-H2K4-IgG4 (antibody, V domains shown)
VH: B1 VH with N84S, R87K
VL: B1 VL
notes: Humanized
B8: 7F10-H3K3-IgG4 (antibody, V domains shown)
VH: B1 VH with Q3K, G42E, S78A, N84S, S85R, R87K, L116T
VL: B1 VL with D41G, T43A
notes: Humanized
B9: 4H6-H3K2-IgG4 (antibody, V domains shown)
VH: EVQLQESGPGLVKPSQTLSLTCTVSGDSVSSGYWNWIRKHPGKKLEYMGFISYSGSTYYTPSLKSRITISRDTSKNQFSLKLSSVTAADTAVYFCARFRRYDDGVDYWGQGTLVTVSS
VL: DIQMTQSPSAMSASVGDRVTITCRASHEISGYLSWIQQKPGGTIKRLINAASTLASGVPSRFSGSRSGTEFTLTISSLQPEDFADYYCLQYSSYPWTFGGGTKLEIK
notes: Humanized
B10: 4H6-H4K2-IgG4 (antibody, V domains shown)
VH: B9 VH with H40F
VL: B9 VL
notes: Humanized
B11: 6A7-mHvKv-IgG4 (antibody, V domains shown)
VH: QVQLQQPGAELVKPGASVKLSCKASGYTFISYYIYWVKQRPGQGLEWIGGINPRNGGTNFNEKFKSKATLTVDKSSSTAYMQLSSLTSEDSAVYYCTRHGNGVYWGQGTTLTVSS
VL: DVVMTQTPLSLPVSLGDQASISCRSSQSLLHSNGNTYLHWYLQKPGQSPNHLIYQVSNRFSGVPDRFSGSGSGTDFTLKISRVEAEDLGVYFCSQTTHVPWTFGGGTKLEIK
notes: Chimeric; also called chimeric anti-hCD40 antibody 6A7-mHvKv-IgG4
B12: 6A7-H2K2-IgG4 (antibody, V domains shown)
VH: QVQLVQSGAEVKKPGASVKVSCKASGYTFISYYIYWVRQAPGQGLEWIGGINPRNGGTNFNEKFKSRATLTVDTSISTAYMELSRLRSEDTAVYYCARHGNGVYWGQGTTVTVSS
VL: B11 VL with T7S, S14T, D17Q, Q18P, L42Q, K44R, L88V, L109V
notes: Humanized
B13: 6A7-H1K1-IgG4 (antibody, V domains shown)
VH: B12 VH with I48M, A68V
VL: DVVMTQSPLSLPVTLGQPASISCRSSQSLLHSNGNTYLHWFQQRPGQSPRHLIYQVSNRFSGVPDRFSGSGSGTDFTLKISRVEAEDVGVYYCSQTTHVPWTFGGGTKVEIK
notes: Humanized
B14: 6A7-H2K3-IgG4 (antibody, V domains shown)
VH: B12 VH
VL: B13 VL with Q17D, F41Y, R50N, Y92F, V109L
notes: Humanized
B15: 6A7-H3K1-IgG4 (antibody, V domains shown)
VH: B12 VH with A97T
VL: B13 VL
notes: Humanized
B16: 6A7-H4K2-IgG4 (antibody, V domains shown)
VH: B12 VH with V20L, R38K, A97T, V111L
VL: B13 VL with F41Y, R50N, Y92F
notes: Humanized
B17: 6A7-H3K2-IgG4 (antibody, V domains shown)
VH: B12 VH with A97T
VL: B13 VL with F41Y, R50N, Y92F
notes: Humanized
B18: 6A7-H2K1-IgG4 (antibody, V domains shown)
VH: B12 VH
VL: B13 VL
notes: Humanized
B19: 6A7-H4K3-IgG4 (antibody, V domains shown)
VH: B12 VH with V20L, R38K, A97T, V111L
VL: B13 VL with Q17D, F41Y, R50N, Y92F, V109L
notes: Humanized
B20: 6A7-H4K1-IgG4 (antibody, V domains shown)
VH: B12 VH with V20L, R38K, A97T, V111L
VL: B13 VL
notes: Humanized
B21: 6A7-H1K3-IgG4 (antibody, V domains shown)
VH: B12 VH with I48M, A68V
VL: B13 VL with Q17D, F41Y, R50N, Y92F, V109L
notes: Humanized
B22: 6A7-H1K2-IgG4 (antibody, V domains shown)
VH: B12 VH with I48M, A68V
VL: B13 VL with F41Y, R50N, Y92F
notes: Humanized
B23: 6A7-H3K3-IgG4 (antibody, V domains shown)
VH: B12 VH with A97T
VL: B13 VL with Q17D, F41Y, R50N, Y92F, V109L
notes: Humanized
B24: 4H6-mHvKv-IgG1 (antibody, V domains shown)
VH: EVKLQESGPSLVKPSQTLSLTCSVTGDSVSSGYWNWIRKFPGNKLEYMGFISYSGSTYYTPSLKSRISITRDTSKNQFYLQLNSVTTEDTATYFCARFRRYDDGVDYWGQGTTLTVSS
VL: DIQMTQSPSSLSASLGERVSLTCRASHEISGYLSWIQQKPDGTIKRLINAASTLASGVPKRFSGSRSGSEYSLTINSLESEDFADYYCLQYSSYPWTFGGGTKLEIK
notes: Chimeric

Molecular target: T1, Histidine-tagged human CD40 protein (hCD40-His) (human, UniProt P25942 21-193)
T1 construct: not shown: histidine tag
Assay: SPR, Biacore T200; antibody on Protein A chip, hCD40-His injected; 1:1 fit
Procedure: The binding affinity of the anti-hCD40 antibodies were measured using surface plasmon resonance (SPR) using Biacore (Biacore, INC, Piscataway N.J.) T200 biosensor equipped with pre-immobilized Protein A sensor chips.
(§1) Anti-hCD40 antibodies were collected by transfecting CHO-S cells and then purified. The antibodies (1 μg/mL) were injected into Biacore T200 biosensor at 10 μL/min for about 24-33 seconds to achieve to a desired protein density (about 44-57 response units (RU)). […] Dissociation was monitored for 300 seconds. The chip was regenerated after the last injection of each titration with Glycine (pH 2.0, 30 μL/min for 12 seconds).

T1 sequence (P25942 21-193 limits assumed): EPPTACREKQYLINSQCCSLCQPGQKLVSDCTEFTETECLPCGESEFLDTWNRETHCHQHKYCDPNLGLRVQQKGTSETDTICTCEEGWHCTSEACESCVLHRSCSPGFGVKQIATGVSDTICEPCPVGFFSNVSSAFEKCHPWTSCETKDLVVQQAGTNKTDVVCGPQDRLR

Kd | koff | kon | Binder
278 nM | 0.0321 s⁻¹ | 115000 M⁻¹ s⁻¹ | B1
184 nM | 0.0274 s⁻¹ | 149000 M⁻¹ s⁻¹ | B2
540 nM | 0.065 s⁻¹ | 120000 M⁻¹ s⁻¹ | B3
380 nM | 0.0482 s⁻¹ | 127000 M⁻¹ s⁻¹ | B4
430 nM | 0.0568 s⁻¹ | 132000 M⁻¹ s⁻¹ | B5
505 nM | 0.0534 s⁻¹ | 106000 M⁻¹ s⁻¹ | B6
202 nM | 0.038 s⁻¹ | 188000 M⁻¹ s⁻¹ | B7
238 nM | 0.0314 s⁻¹ | 132000 M⁻¹ s⁻¹ | B8
53.6 nM | 0.0215 s⁻¹ | 401000 M⁻¹ s⁻¹ | B9
48.7 nM | 0.0191 s⁻¹ | 392000 M⁻¹ s⁻¹ | B10
2.6 nM | 0.000259 s⁻¹ | 99400 M⁻¹ s⁻¹ | B11
189 nM | 0.00496 s⁻¹ | 26300 M⁻¹ s⁻¹ | B12
280 nM | 0.00571 s⁻¹ | 20400 M⁻¹ s⁻¹ | B13
111 nM | 0.00505 s⁻¹ | 45300 M⁻¹ s⁻¹ | B14
20.8 nM | 0.000574 s⁻¹ | 27600 M⁻¹ s⁻¹ | B15
3.06 nM | 0.000322 s⁻¹ | 105000 M⁻¹ s⁻¹ | B16
5.74 nM | 0.000371 s⁻¹ | 64600 M⁻¹ s⁻¹ | B17
298 nM | 0.00708 s⁻¹ | 23700 M⁻¹ s⁻¹ | B18
3.49 nM | 0.000373 s⁻¹ | 107000 M⁻¹ s⁻¹ | B19
23.9 nM | 0.000572 s⁻¹ | 23900 M⁻¹ s⁻¹ | B20
136 nM | 0.0039 s⁻¹ | 28700 M⁻¹ s⁻¹ | B21
187 nM | 0.00386 s⁻¹ | 20600 M⁻¹ s⁻¹ | B22
2.9 nM | 0.000356 s⁻¹ | 123000 M⁻¹ s⁻¹ | B23
36.5 nM | 0.0205 s⁻¹ | 561000 M⁻¹ s⁻¹ | B24

Molecular target: T2, Histidine-tagged mfCD40 protein (mfCD40-His), Macaca fascicularis (Macaca fascicularis, UniProt G7PG38 21-193)
T2 construct: not shown: histidine tag
Assay: SPR, Biacore T200; antibody on Protein A chip, mfCD40-His injected; 1:1 fit
Procedure: The binding affinity of the anti-hCD40 antibodies with mfCD40 (Macaca fascicularis) were measured using surface plasmon resonance (SPR) using Biacore (Biacore, INC, Piscataway N.J.) T200 biosensor equipped with pre-immobilized Protein A sensor chips.
as §1, with “were” for “were collected by transfecting CHO-S cells and then”, “(0.5” for “(1”, “18-26” for “24-33”, “44-58” for “44-57”, “300-600” for “300”

Kd | koff | kon | Binder
33.6 nM | 0.0192 s⁻¹ | 570000 M⁻¹ s⁻¹ | B9
29.7 nM | 0.0169 s⁻¹ | 568000 M⁻¹ s⁻¹ | B10
3.96 nM | 0.000787 s⁻¹ | 199000 M⁻¹ s⁻¹ | B16
0.871 nM | 0.000201 s⁻¹ | 231000 M⁻¹ s⁻¹ | B23
